± gives the uncertainty stated by the source.
assay: amyloid nucleation score (Sup35N fusion, yeast selection) (log enrichment); library NNK3; higher = more nucleation; inactive = no reads after selection
Summary of the method: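 The nucleation score equals the log enrichment of output over input reads from DiMSum, centred on the mode score of non-aggregating sequences. It was computed only for sequences with 100 or more input reads. The reads came from Illumina sequencing of plasmid inserts from psi-negative yeast expressing Sup35N fused to peptides of 20 random codons, induced with 100 μM copper sulfate for 24 hours and grown 7 days at 30°C without adenine and uracil.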

Amyloid nucleation score, 1.23 ± 0.14:
DNISHLAFCFNMALWYSNQS

Amyloid nucleation score, -0.714 ± 1:
EKKCIQRRFFYSVFNLMLSF

Amyloid nucleation score, -0.385 ± 0.73:
EMNVLCGTYKFQFGVASGVD

Amyloid nucleation score, 0.37 ± 0.41:
DLSREQLGCVVGVQAECMKG

Amyloid nucleation score, -0.629 ± 1.1:
DIERGFGDSCKNGHFAVGSV

Amyloid nucleation score, -0.225 ± 0.58:
DLAYIGVFLIMFCFTSVDSM

Amyloid nucleation score, -0.11 ± 0.62:
DWLDLSGVSCH

Amyloid nucleation score, -0.906 ± 1.4:
ENAYLRSCRVVVKESSNVVV

Amyloid nucleation score, 0.814 ± 0.24:
ECLRLDCGTSRLYYYHLITM

Amyloid nucleation score, 2.42 ± 0.055:
DGFIWAQGLTLIFMRSNMKR

Amyloid nucleation score, 0.498 ± 0.25:
DQAIVLVNFVSASSVPPKIF

Amyloid nucleation score, 0.866 ± 0.16:
DSSLKMGCKGWNVYVGATLV

Amyloid nucleation score, 1.41 ± 0.091:
DGCGCKWTGACAMLSCHMYL

Amyloid nucleation score, 1.84 ± 0.061:
DYRVNCFTCLYVVEVSHSHD

Amyloid nucleation score, -0.616 ± 0.8:
DGDIVDSG

Amyloid nucleation score, inactive:
DDVTGKMKKIVCVDSHCQLP
DERLVYGEKSCRFSLSYANM
DFDAFRFIHVVSWFGFTIYP
DFDILGSDHISWWYGRFDKT
DFGSDSVDRIPRTGADNSI
DFMRVGVTRRALRVLSKSSD
DFNLNEVDTDMGFSLSESL
DFNSVVLPNGV
DFRLFFCLYGVYNLRYCFGW
DFYICPCCLSLKKRTMMSCG
DGACVSSRLSWGLVYMKKCS
DGDYSWGFVIRCHGPRSWSR
DGHMDR
DGHWVALREKSFSNQYRSET
DGVLNRSNDHPVQTPWPWFW
DGWFNQCASESSFKVHHGS
DIEMY
DIFVFILMLRTTDSWVLLS
DIFVNAV
DILEVIDIF
DIQTLPKLDLVFFVWAILEL
DISSILVNTWLFDWKLNP
DITRGCGVKDRKVVPASGLA
DIVCNFVT
DIVYQARCA
DKKVSISRVSR
DKMKQKAQKVEDLHMAIGDD
DKTCMVKPT
DLCGNPVPVQSSGLGYDGLV
DLFKMRLGTERGY
DLGMLERC
DLGRNYIVNGIL
DLITSRSVLFVIVVL
DLTSIVWSRAYVVSY
DLWIYIVLYVVAHVALYKDG
DMKLPVCSKMPLFMLVIKFK
DMSSSGITGTEFRCNYYHEY
DNCEDEDKNRRNVRLYRGWV
DNIGSCHDSRAYVS
DNLFSETSYVVRFARFL
DNLPTRRYLNKNDWRGASYL
DNVIYPASYGVVRRNTRHGF
DPLLLNRFGNCMLTLWVIVR
DPRRGIPIKPQMINTVQM
DPTVVGWEYMVSRFCLSRFT
DQMIEDRNWNGVNDYSYNAC
DRCCLLHYT
DRCGVFNTPYLVNSELILC
DRFEMPDVLWCRDYCNIARS
DRIDRDGRRIECQWGRGGVM
DRLHSCYCCTIVHRFYRNYD
DRLYGVSFVDF
DRNCRLIHYFIQ
DRNRCIVYTHGEISRLQ
DRQLDDGGTRNKFIKCLVAR
DRTTSVGPYSAVLGFMCDWW
DRVSANLTFLSS
DSFILLDTSTHTNTTAYGKC
DSQCLVWYIRFAYNERSHRK
DSQVSTTGVMEDRYLPILCF
DSRFEWLLTLYYRFYLHNGR
DSRKRKVRF
DSSKFLLTCHLWCG
DSSKV
DSSSDGSLTYDRGRSRSLFE
DSTDFRVLRGRRSRGEYVRG
DSVYGMHGKTTFT
DSYYFPRQGWMY
DTITRSTWIVCWRTE
DTMSKPSLLLGIPCVTHDVA
DTQQENCRTRGVRRGPRFCG
DTRFWTARLLYFFI
DTVMGSCDEFYLFASRHLCL
DTYRV
DVALTWPCYVDTTKCQMIMY
DVAWHRSACEYLFM
DVAYFNAFY
DVCEGEIYDPDSLKWFYQFL
DVCTLSELSVFPSLSISQ
DVEFI
DVFRVMDNLLFWKGTLALIQ
DVGSR
DVLGVSSASERAFGFENRAL
DVLRVPMNEVTNWSIPPY
DVMEVNLVPRAFNLCSSSGL
DVMKVMDRINKRGDNSNYVC
DVNLRTSHYAF
DVRIIAV
DWFSMVSRSGVDLKSVKRFG
DWTRFPSAFTGVQKSLVD
DWYMTVW
DYDGWESCFHFS
DYIYILSW
DYKRSMGFGWLTFVPYLAGN
DYLPFHLMERDKVALAPWWA
DYVFPRVYRGS
DYVPIKFYRYYEILNVCRVV
EARLTSLCKKQYEF
EAVSCWSRKNMVRYGNGDRA
ECMRNTPLTQSTATTMTTGF
ECTSF
ECVCCRYYLVCGGPILRQDL
EDLVISNIFGWFGCLGLVYT
EDNRTTVVFTGEC
EDVSSNIRWRHTGKGETVVM
EDVYFSYGDVWMVIGALTTV
EEGCYHLLNNLGRNCSECNG
EFAGCKRRMRKGPIIVPADV
EFDDRACYDDTV
EFFCWIDSSIGSRYFSMTED
EFITSYMFSFVYVKNLWCKY
EFLQWFDFLQMMAPSLRSAN
EFQNFLVSFYEMYLQSPK
EFTNMYLPNSQQEVRFLQGL
EFVDSLLKRGGLFRVFGASS
EFVSDLDTDEVGLHCFCWCP
EGKARGDH
EGPGDEIFVSG
EGYACIVYCLGPINLLMWCT
EHNAKEHITLGLTSWPNRLG
EHPLMSSSVSSTNMFNYAQI
EHWCFINFLELICYQYLFLP
EIYCFRCVVIGIYYLVTIID
EKITFGECWKACSAF
EKLVTCKDYFNRASTVTSLG
EKNNNRDGTDAVVIGNHKAG
EKYWNN
ELCVRQLCY
ELDGMTYASDHAFCISRNSS
ELLCLIYMDLHVCWQGLTMQ
ELLHKAF
ELLSCLKIWDIL
ELTEDLVDL
ELVGQF
ELVYDLDRYDGGLGVKNEEW
EMNLLFIVDAIELCPVLQAR
EMNSTFW
EMSFY
EMTGTYEVCFMT
ENIVCLAGKQHNHEMG
ENNRCYYKMF
ENSIVADTGPAV

Amyloid nucleation score, 0.758 ± 0.11:
DGRSFAVDAIVYCHLYR

Amyloid nucleation score, -0.466 ± 0.84:
DLWHPMSY
